Reference: patent US20100047228

System: delta-plasminogen
Sequence (chain, as listed by the source mutant): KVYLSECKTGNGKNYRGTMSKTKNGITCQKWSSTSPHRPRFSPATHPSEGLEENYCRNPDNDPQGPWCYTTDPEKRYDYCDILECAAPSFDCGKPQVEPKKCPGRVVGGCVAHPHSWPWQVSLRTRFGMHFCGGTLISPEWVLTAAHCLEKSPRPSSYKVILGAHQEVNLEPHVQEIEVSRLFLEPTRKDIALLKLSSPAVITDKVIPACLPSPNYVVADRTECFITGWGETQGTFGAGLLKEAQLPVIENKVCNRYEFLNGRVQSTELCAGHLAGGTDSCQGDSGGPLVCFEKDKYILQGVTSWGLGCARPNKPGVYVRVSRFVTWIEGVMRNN

urokinase
conversion of one-chain delta-plasminogen into two-chain delta-plasmin (reduced SDS-PAGE): delta-plasminogen indeed can be activated by all three plasminogen activators
